Laboratory results taken from the supplement of paper PMC11246515.
± gives the standard deviation of the averaged measurements.

Assay: total protein half-life in vivo (active degradation + dilution); higher = more stable protein
[1] = E. coli NCM3722 delta-clpP delta-lon delta-hslV, growth: N-lim chemostat, doubling time 6 h
[2] = E. coli NCM3722 delta-clpP, growth: N-lim chemostat, doubling time 6 h
[3] = E. coli NCM3722 delta-hslV, growth: N-lim chemostat, doubling time 6 h
[4] = E. coli NCM3722 delta-lon, growth: N-lim chemostat, doubling time 6 h
[5] = E. coli NCM3722 delta-smpB, growth: N-lim chemostat, doubling time 6 h
[6] = wild type E. coli NCM3722, growth: C-lim chemostat, doubling time 3 h
[7] = wild type E. coli NCM3722, growth: C-lim chemostat, doubling time 6 h
[8] = wild type E. coli NCM3722, growth: C-lim chemostat, doubling time 12 h
[9] = wild type E. coli NCM3722, growth: N-lim chemostat, doubling time 6 h
[10] = wild type E. coli NCM3722, growth: N-lim chemostat, doubling time 12 h
[11] = wild type E. coli NCM3722, growth: P-lim chemostat, doubling time 6 h
[12] = wild type E. coli NCM3722, growth: P-lim chemostat, doubling time 12 h

MSEMIYGIHAVQALLERAPERFQEVFILKGREDKRLLPLIHALESQGVVIQLANRQYLDEKSDGAVHQGIIARVKPGRQYQENDLPDLIASLDQPFLLILDGVTDPHNLGACLRSADAAGVHAVIVPKDRSAQLNATAKKVACGAAESVPLIRVTNLARTMRMLQEENIWIVGTAGEADHTLYQSKMTGRLALVMGAEGEGMRRLTREHCDELISIPMAGSVSSLNVSVATGICLFEAVRQRS
total protein half-life in vivo [1]: 5.18 ± 0.29 h | total protein half-life in vivo [2]: 4.81 ± 0.49 h | total protein half-life in vivo [3]: 5.39 ± 0.28 h | total protein half-life in vivo [4]: 5.55 ± 0.52 h | total protein half-life in vivo [5]: 4.69 ± 0.23 h | total protein half-life in vivo [6]: 2.73 ± 0.46 h | total protein half-life in vivo [7]: 5.83 ± 0.66 h | total protein half-life in vivo [8]: 10.3 ± 0.25 h | total protein half-life in vivo [9]: 5.17 ± 0.15 h | total protein half-life in vivo [10]: 9.48 ± 0.31 h | total protein half-life in vivo [11]: 5.37 ± 0.4 h | total protein half-life in vivo [12]: 11.5 ± 0.28 h

MSEPLDLNQLAQKIKQWGLELGFQQVGITDTDLSESEPKLQAWLDKQYHGEMDWMARHGMLRARPHELLPGTLRVISVRMNYLPANAAFASTLKNPKLGYVSRYALGRDYHKLLRNRLKKLGEMIQQHCVSLNFRPFVDSAPILERPLAEKAGLGWTGKHSLILNREAGSFFFLGELLVDIPLPVDQPVEEGCGKCVACMTICPTGAIVEPYTVDARRCISYLTIELEGAIPEELRPLMGNRIYGCDDCQLICPWNRYSQLTTEEDFSPRKPLHAPELIELFAWSEEKFLKVTEGSAIRRIGHLRWLRNIAVALGNAPWDETILTALESRKGEHPLLDEHIAWAIAQQIERRNACIVEVQLPKKQRLVRVIEKGLPRDA
total protein half-life in vivo [1]: 5.59 ± 0.68 h | total protein half-life in vivo [4]: 2.85 ± 0.33 h | total protein half-life in vivo [5]: 1.41 h | total protein half-life in vivo [6]: > 4 h | total protein half-life in vivo [9]: 1.85 h | total protein half-life in vivo [12]: 3.79 h

MSEPLLIARTPDTELFLLPGMANRHGLITGATGTGKTVTLQKLAESLSEIGVPVFMADVKGDLTGVAQAGTVSEKLLARLKNIGVNDWQPHANPVVVWDIFGEKGHPVRATVSDLGPLLLARLLNLNDVQSGVLNIIFRIADDQGLLLLDFKDLRAITQYIGDNAKSFQNQYGNISSASVGAIQRGLLSLEQQGAAHFFGEPMLDIKDWMRTDANGKGVINILSAEKLYQMPKLYAASLLWMLSELYEQLPEAGDLEKPKLVFFFDEAHLLFNDAPQVLLDKIEQVIRLIRSKGVGVWFVSQNPSDIPDNVLGQLGNRVQHALRAFTPKDQKAVKAAAQTMRANPAFDTEKAIQELGTGEALISFLDAKGSPSVVERAMVIAPCSRMGPVTEDERNGLINHSPVYGKYEDEVDRESAYEMLQKGFQASTEQQNNPPAKGKEVAVDDGILGGLKDILFGTTGPRGGKKDGVVQTMAKSAARQVTNQIVRGMLGSLLGGRRR
total protein half-life in vivo [1]: 5.04 ± 0.57 h | total protein half-life in vivo [2]: 4.98 ± 0.19 h | total protein half-life in vivo [3]: 5.1 ± 0.27 h | total protein half-life in vivo [4]: 5.07 ± 0.26 h | total protein half-life in vivo [5]: 4.73 ± 0.25 h | total protein half-life in vivo [6]: 3.263 ± 0.025 h | total protein half-life in vivo [7]: 5.39 ± 0.34 h | total protein half-life in vivo [8]: 9.77 ± 0.81 h | total protein half-life in vivo [9]: 4.77 ± 0.15 h | total protein half-life in vivo [10]: 8.27 ± 0.62 h | total protein half-life in vivo [11]: 5.66 ± 0.28 h | total protein half-life in vivo [12]: 9.88 ± 0.78 h

MSEPMMWLLVRGVWETLAMTFVSGFFGFVIGLPVGVLLYVTRPGQIIANAKLYRTVSAIVNIFRSIPFIILLVWMIPFTRVIVGTSIGLQAAIVPLTVGAAPFIARMVENALLEIPTGLIEASRAMGATPMQIVRKVLLPEALPGLVNAATITLITLVGYSAMGGAVGAGGLGQIGYQYGYIGYNATVMNTVLVLLVILVYLIQFAGDRIVRAVTRK
total protein half-life in vivo [1]: 6.59 h | total protein half-life in vivo [2]: 6.5 h | total protein half-life in vivo [3]: 6.24 h | total protein half-life in vivo [4]: 5.881 ± 0.054 h | total protein half-life in vivo [5]: 5.76 ± 0.38 h | total protein half-life in vivo [6]: 3.25 ± 0.28 h | total protein half-life in vivo [7]: 6.38 h | total protein half-life in vivo [8]: 11.6 h | total protein half-life in vivo [9]: 6.095 ± 0.06 h | total protein half-life in vivo [10]: 11.6 ± 1.8 h | total protein half-life in vivo [11]: 6.63 ± 0.78 h

MSEQFLYFLQQMFNGVTLGSTYALIAIGYTMVYGIIGMINFAHGEVYMIGSYVSFMIIAALMMMGIDTGWLLVAAGFVGAIVIASAYGWSIERVAYRPVRNSKRLIALISAIGMSIFLQNYVSLTEGSRDVALPSLFNGQWVVGHSENFSASITTMQAVIWIVTFLAMLALTIFIRYSRMGRACRACAEDLKMASLLGINTDRVIALTFVIGAAMAAVAGVLLGQFYGVINPYIGFMAGMKAFTAAVLGGIGSIPGAMIGGLILGIAEALSSAYLSTEYKDVVSFALLILVLLVMPTGILGRPEVEKV [P0AEX7]
total protein half-life in vivo [1]: 6.2 h | total protein half-life in vivo [3]: > 8 h | total protein half-life in vivo [5]: 6.44 ± 0.19 h | total protein half-life in vivo [6]: 2.75 ± 0.53 h | total protein half-life in vivo [9]: > 8 h | total protein half-life in vivo [12]: > 16 h

MSEQLTDQVLVERVQKGDQKAFNLLVVRYQHKVASLVSRYVPSGDVPDVVQEAFIKAYRALDSFRGDSAFYTWLYRIAVNTAKNYLVAQGRRPPSSDVDAIEAENFESGGALKEISNPENLMLSEELRQIVFRTIESLPEDLRMAITLRELDGLSYEEIAAIMDCPVGTVRSRIFRAREAIDNKVQPLIRR [P0AGB6]
total protein half-life in vivo [1]: 5.283 ± 0.0063 h | total protein half-life in vivo [2]: 6.37 ± 0.46 h | total protein half-life in vivo [3]: 6.86 ± 0.17 h | total protein half-life in vivo [4]: 7.1 ± 0.53 h | total protein half-life in vivo [5]: 6.14 ± 0.71 h | total protein half-life in vivo [6]: 3.49 ± 0.3 h | total protein half-life in vivo [7]: 5.85 ± 0.13 h | total protein half-life in vivo [8]: 11.8 ± 1.1 h | total protein half-life in vivo [9]: 5.76 ± 0.9 h | total protein half-life in vivo [10]: 11.3 ± 1.4 h | total protein half-life in vivo [11]: 5.63 ± 0.5 h | total protein half-life in vivo [12]: 12.6 ± 0.15 h

MSERLSITPLGPYIGAQISGADLTRPLSDNQFEQLYHAVLRHQVVFLRDQAITPQQQRALAQRFGELHIHPVYPHAEGVDEIIVLDTHNDNPPDNDNWHTDVTFIETPPAGAILAAKELPSTGGDTLWTSGIAAYEALSVPFRQLLSGLRAEHDFRKSFPEYKYRKTEEEHQRWREAVAKNPPLLHPVVRTHPVSGKQALFVNEGFTTRIVDVSEKESEALLSFLFAHITKPEFQVRWRWQPNDIAIWDNRVTQHYANADYLPQRRIMHRATILGDKPFYRAG
total protein half-life in vivo [1]: 4.38 ± 0.24 h | total protein half-life in vivo [2]: 4.17 ± 3.1 h | total protein half-life in vivo [3]: 2.39 ± 0.83 h | total protein half-life in vivo [4]: 2.1 h | total protein half-life in vivo [5]: 2.36 ± 0.22 h | total protein half-life in vivo [6]: 2.88 ± 0.46 h | total protein half-life in vivo [7]: 4.02 h | total protein half-life in vivo [8]: 5.19 ± 0.73 h | total protein half-life in vivo [9]: 1.58 h | total protein half-life in vivo [10]: 2.31 ± 0.34 h | total protein half-life in vivo [11]: 4.3 h | total protein half-life in vivo [12]: 7.36 ± 0.57 h
